Reference: patent US20030091567A1 (published 2003)

Tests used:
[1] = biological target: Flt4 receptor tyrosine kinase (VEGFR-3) expressed on cells (human) (UniProt P35916); assay: Scatchard analysis with 125I-labelled VEGF-C ΔNΔCHis (cell binding, PAE/VEGFR-3 cells)
[2] = biological target: T1, 32 kD VEGF-C polypeptide (amino acids 32-227 of prepro-VEGF-C) (human, UniProt P49767 32-227); assay: non-reducing and reducing SDS-PAGE of immunoprecipitates
T1 construct: also called 32 kD form; 31 kD
T1 sequence: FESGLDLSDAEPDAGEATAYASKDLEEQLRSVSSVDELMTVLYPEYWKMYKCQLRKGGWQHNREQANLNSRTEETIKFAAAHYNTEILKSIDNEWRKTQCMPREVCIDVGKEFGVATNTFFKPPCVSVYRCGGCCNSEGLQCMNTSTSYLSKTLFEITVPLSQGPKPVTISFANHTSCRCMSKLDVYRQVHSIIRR
Procedure: The immunoprecipitates from each cell culture were subjected to SDS-PAGE under non-denaturing conditions (FIG. 6B). Bands 1-6 were cut out from the gel, soaked for 30 minutes in 1×gel-loading buffer containing 200 mM β-mercaptoethanol, and individually subjected to SDS-PAGE under denaturing conditions (FIGS. 6A and 6C, lanes 1-6).

[3] = biological target: T2, recombinant Flt4 extracellular domain with C-terminal 6xHis tag (baculovirus), coupled to Sepharose (human, UniProt P35916 25-775); assay: depletion with Flt4EC affinity matrix, read out by VEGFR-2 phosphorylation
T2 construct: extracellular domain; also called Flt4EC; Flt4 EC
T2 sequence: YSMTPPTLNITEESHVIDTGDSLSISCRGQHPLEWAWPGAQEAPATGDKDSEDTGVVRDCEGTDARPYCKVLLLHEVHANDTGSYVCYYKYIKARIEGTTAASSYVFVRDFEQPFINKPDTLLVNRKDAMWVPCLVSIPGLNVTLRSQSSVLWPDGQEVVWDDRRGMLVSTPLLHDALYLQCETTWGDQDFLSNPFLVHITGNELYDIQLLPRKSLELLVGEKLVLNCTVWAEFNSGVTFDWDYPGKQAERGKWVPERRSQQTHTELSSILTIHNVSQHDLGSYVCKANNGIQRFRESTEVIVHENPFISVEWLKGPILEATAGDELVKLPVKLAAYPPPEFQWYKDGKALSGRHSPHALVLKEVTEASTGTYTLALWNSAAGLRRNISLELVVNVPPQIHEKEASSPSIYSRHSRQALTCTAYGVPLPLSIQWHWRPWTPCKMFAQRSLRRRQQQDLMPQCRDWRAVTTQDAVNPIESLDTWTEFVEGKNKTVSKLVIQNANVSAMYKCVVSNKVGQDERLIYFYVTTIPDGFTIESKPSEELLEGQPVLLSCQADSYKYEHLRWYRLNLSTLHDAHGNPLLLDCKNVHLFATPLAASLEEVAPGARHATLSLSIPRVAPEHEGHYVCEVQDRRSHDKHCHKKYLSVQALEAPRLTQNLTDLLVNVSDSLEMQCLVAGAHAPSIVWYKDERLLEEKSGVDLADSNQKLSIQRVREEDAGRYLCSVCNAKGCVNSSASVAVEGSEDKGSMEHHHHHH

Question: With “VEGF-C ΔNΔCHis (from UniProt P49767 103-225) (ligand)” as the molecule, how does the Kd [1] read?
Answer: The Kd was 0.135 nM.

B1: 29 kD VEGF-C polypeptide (beginning with amino acid 228 of prepro-VEGF-C) (other)
chain: SLPATLPQCQAANKTCPTNYMWNNHICRCLAQEDFMFSSDAGDDSTDGFHDICGPNKELDEETCQCVCRAGLRPASCGPHKELDRNSCQCVCKNKLFPSQCGANREFDENTCQCVCKRTCPRNQPLNPGKCACECTESPQKCLLKGKKFHHQTCSCYRRPCTNRQKACEPGFSYSEEVCRCVPSYWKRPQMS
notes: C-terminal propeptide; also called 29 kD component; 29 kD form
Question: Does B1 bind [2]?
Answer: Result: binds

B2: recombinant human VEGF165 (ligand)
chain: APMAEGGGQNHHEVVKFMDVYQRSYCHPIETLVDIFQEYPDEIEYIFKPSCVPLMRCGGCCNDEGLECVPTEESNITMQIMRIKPHQGQHIGEMSFLQHNKCECRPKKDRARQENPCGPCSERRKHLFVQDPQTCKCSCKNTDSRCKARQLELNERTCRCDKPRR
notes: Bought protein; also called recombinant human VEGF (R&D Systems)
Question: Does B2 bind [3]?
Answer: Result: no binding (tested: 50 ng/ml)
